The source of these data is paper PMC6478713, “Structural insight into YcbB-mediated beta-lactam resistance in Escherichia coli” (Nature Communications, 2019).

A word on the Kd: it is the equilibrium constant for the complex coming apart. A high value points to a looser complex.

Test [1] has as its target T1, Escherichia coli PBP1b from residue 58 onward, styrene-maleic acid co-polymer solubilised, fluorescently … (Escherichia coli, UniProt P02919 58-844, Alexa Fluor 647 NHS Ester label (sites not given)).
T1 construct: Held in styrene-maleic acid co-polymer particles; Thrombin-cleavable tag; the purification paragraph calls the removed tag N-terminal, the cloning paragraph C-terminal; also called SMA-solubilised PBP1b; not shown: His8, C-terminal, cleaved
T1 sequence: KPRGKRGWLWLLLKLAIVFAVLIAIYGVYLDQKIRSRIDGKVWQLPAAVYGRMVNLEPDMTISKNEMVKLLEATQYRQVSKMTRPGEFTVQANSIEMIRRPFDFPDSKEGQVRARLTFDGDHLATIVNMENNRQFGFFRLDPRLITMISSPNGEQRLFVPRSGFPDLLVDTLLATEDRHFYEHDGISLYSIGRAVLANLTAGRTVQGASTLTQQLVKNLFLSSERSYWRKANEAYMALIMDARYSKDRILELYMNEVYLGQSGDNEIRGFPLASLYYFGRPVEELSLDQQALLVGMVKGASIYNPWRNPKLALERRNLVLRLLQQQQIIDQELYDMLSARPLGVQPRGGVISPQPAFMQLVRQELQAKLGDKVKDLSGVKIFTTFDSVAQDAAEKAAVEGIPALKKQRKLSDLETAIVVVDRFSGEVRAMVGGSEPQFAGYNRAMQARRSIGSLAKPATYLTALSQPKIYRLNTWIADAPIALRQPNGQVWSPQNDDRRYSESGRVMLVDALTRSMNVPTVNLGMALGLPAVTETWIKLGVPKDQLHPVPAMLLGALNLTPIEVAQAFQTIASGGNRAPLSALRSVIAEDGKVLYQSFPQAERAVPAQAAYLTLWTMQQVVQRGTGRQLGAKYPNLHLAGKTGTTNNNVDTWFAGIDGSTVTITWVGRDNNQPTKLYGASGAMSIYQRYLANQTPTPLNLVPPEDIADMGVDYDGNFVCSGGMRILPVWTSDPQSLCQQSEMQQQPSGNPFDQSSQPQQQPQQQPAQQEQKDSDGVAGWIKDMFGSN
Kind of test: MST; Monolith NT.115Pico; unlabelled YcbB (1.5 nM-3.1 uM) titrated into Alexa Fluor 647-labelled SMA-solubilised PBP1b at 100 nM; Buffer C; analysed using fluorescence values; binding isotherm with adjustable Hill coefficient. The conditions noted are these: both partners purified.

Test [2] addresses T2, Escherichia coli YcbB (residue 31 onward), fluorescently labelled with Alexa Fluor 647 (Escherichia coli, UniProt P22525 31-615, Alexa Fluor 647 NHS Ester label (sites not given)).
T2 construct: L,D-transpeptidase YcbB (LdtD), E. coli, without its signal peptide (residues 1-30), residue 31 onward; Same construct as m1, labelled for the MST with PBP5; also called fluorescently labelled YcbB; source: E. coli BL21 (DE3), purified (HisTrap Ni2+, SEC Superdex 200), then labelled; not shown: His8, C-terminal, cleaved
T2 sequence: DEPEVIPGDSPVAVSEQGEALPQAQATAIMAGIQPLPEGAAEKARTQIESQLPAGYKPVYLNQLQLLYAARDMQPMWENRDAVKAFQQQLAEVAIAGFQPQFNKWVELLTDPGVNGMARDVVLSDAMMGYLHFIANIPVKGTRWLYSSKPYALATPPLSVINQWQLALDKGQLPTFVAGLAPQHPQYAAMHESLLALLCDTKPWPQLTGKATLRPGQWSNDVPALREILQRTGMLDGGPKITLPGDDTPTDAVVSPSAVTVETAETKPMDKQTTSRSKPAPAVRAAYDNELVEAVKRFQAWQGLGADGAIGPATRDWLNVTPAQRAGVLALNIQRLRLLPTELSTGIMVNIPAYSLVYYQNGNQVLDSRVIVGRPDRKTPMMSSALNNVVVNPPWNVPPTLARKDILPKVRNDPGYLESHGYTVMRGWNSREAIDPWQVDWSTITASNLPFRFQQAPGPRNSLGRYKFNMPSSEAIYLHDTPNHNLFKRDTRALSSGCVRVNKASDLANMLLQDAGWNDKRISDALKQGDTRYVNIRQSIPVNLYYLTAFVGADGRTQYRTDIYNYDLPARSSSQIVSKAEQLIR
Put plainly: MST; Monolith NT.115Pico; unlabelled PBP5 (120 pM-98 uM) titrated into Alexa Fluor 647-labelled YcbB at 15 nM; Buffer C; analysed using MST; binding isotherm with adjustable Hill coefficient. The conditions noted are these: both partners purified.

B1: Escherichia coli YcbB without its signal peptide (residue 31 onward) (enzyme)
chain: DEPEVIPGDSPVAVSEQGEALPQAQATAIMAGIQPLPEGAAEKARTQIESQLPAGYKPVYLNQLQLLYAARDMQPMWENRDAVKAFQQQLAEVAIAGFQPQFNKWVELLTDPGVNGMARDVVLSDAMMGYLHFIANIPVKGTRWLYSSKPYALATPPLSVINQWQLALDKGQLPTFVAGLAPQHPQYAAMHESLLALLCDTKPWPQLTGKATLRPGQWSNDVPALREILQRTGMLDGGPKITLPGDDTPTDAVVSPSAVTVETAETKPMDKQTTSRSKPAPAVRAAYDNELVEAVKRFQAWQGLGADGAIGPATRDWLNVTPAQRAGVLALNIQRLRLLPTELSTGIMVNIPAYSLVYYQNGNQVLDSRVIVGRPDRKTPMMSSALNNVVVNPPWNVPPTLARKDILPKVRNDPGYLESHGYTVMRGWNSREAIDPWQVDWSTITASNLPFRFQQAPGPRNSLGRYKFNMPSSEAIYLHDTPNHNLFKRDTRALSSGCVRVNKASDLANMLLQDAGWNDKRISDALKQGDTRYVNIRQSIPVNLYYLTAFVGADGRTQYRTDIYNYDLPARSSSQIVSKAEQLIR
notes: L,D-transpeptidase YcbB (LdtD), E. coli, without its signal peptide (residues 1-30), residue 31 onward; Unlabelled form: titrant in the MST with PBP1b and the protein that was crystallised (there acylated by meropenem on Cys528); Vector named pET41b-GST; no GST on the protein is spoken of; Thrombin-cleavable tag; the purification paragraph calls the removed tag N-terminal, the cloning paragraph …
In test [1], B1 came in with a Kd of 250 ± 30 nM.

B2: Escherichia coli PBP5 from residue 30 onward (enzyme)
chain: DDLNIKTMIPGVPQIDAESYILIDYNSGKVLAEQNADVRRDPASLTKMMTSYVIGQAMKAGKFKETDLVTIGNDAWATGNPVFKGSSLMFLKPGMQVPVSQLIRGINLQSGNDACVAMADFAAGSQDAFVGLMNSYVNALGLKNTHFQTVHGLDADGQYSSARDMALIGQALIRDVPNEYSIYKEKEFTFNGIRQLNRNGLLWDNSLNVDGIKTGHTDKAGYNLVASATEGQMRLISAVMGGRTFKGREAESKKLLTWGFRFFETVNPLKVGKEFASEPVWFGDSDRASLGVDKDVYLTIPRGRMKDLKASYVLNSSELHAPLQKNQVVGTINFQLDGKTIEQRPLVVLQEIPEGNFFGKIIDYIKLMFHHWFG
notes: HRV 3C protease-cleavable tag; the purification paragraph calls the removed tag N-terminal, the cloning paragraph C-terminal; also called D,D-carboxypeptidase PBP5; source: E. coli BL21 (DE3), purified (HisTrap Ni2+, SEC Superdex 200); not shown: His8, C-terminal, cleaved
Molecule B2 came in with a Kd in test [2] of around 2000 nM.
